# Results published in US20040132096A1 (GlaxoSmithKline, published 2004).
# T1: Nogo-A (Homo sapiens (Human), UniProt Q9NQC3 1-1192)
# T1 sequence: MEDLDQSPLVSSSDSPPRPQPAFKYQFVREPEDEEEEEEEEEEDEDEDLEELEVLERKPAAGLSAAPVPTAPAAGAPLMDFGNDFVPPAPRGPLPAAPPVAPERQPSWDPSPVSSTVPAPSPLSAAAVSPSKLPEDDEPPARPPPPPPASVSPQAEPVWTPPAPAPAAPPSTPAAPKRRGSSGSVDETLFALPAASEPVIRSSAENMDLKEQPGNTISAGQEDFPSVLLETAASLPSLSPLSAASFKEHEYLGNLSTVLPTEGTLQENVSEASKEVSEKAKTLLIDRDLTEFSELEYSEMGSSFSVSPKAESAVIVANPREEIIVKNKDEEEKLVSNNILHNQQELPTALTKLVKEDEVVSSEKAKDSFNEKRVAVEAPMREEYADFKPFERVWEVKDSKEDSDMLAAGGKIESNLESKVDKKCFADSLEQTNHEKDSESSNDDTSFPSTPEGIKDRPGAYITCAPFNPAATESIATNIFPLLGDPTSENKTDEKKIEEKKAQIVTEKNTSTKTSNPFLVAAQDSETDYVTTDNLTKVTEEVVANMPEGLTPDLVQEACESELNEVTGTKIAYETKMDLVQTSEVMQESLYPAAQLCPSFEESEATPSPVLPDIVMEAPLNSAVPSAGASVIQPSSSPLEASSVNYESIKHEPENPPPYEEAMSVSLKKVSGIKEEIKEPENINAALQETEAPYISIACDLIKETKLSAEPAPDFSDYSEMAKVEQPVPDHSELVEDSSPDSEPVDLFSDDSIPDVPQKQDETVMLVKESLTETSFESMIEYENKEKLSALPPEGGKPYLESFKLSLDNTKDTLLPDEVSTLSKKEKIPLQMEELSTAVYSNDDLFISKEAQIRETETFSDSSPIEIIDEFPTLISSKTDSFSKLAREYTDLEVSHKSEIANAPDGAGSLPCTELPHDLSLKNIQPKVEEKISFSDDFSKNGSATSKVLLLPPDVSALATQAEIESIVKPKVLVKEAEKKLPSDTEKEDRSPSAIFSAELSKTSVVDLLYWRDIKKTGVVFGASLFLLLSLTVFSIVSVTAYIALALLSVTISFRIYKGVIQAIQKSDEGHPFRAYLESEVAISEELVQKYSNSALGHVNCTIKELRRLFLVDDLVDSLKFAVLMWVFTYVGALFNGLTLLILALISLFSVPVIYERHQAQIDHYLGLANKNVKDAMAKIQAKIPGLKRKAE
# B1: Asp2/BACE-myc (enzyme, not shown: small tags and cut ends)
# chain: ETDEEPEEPGRRGSFVEMVDNLRGKSGQGYYVEMTVGSPPQTLNILVDTGSSNFAVGAAPHPFLHRYYQRQLSSTYRDLRKGVYVPYTQGKWEGELGTDLVSIPHGPNVTVRANIAAITESDKFFINGSNWEGILGLAYAEIARPDDSLEPFFDSLVKQTHVPNLFSLQLCGAGFPLNQSEVLASVGGSMIIGGIDHSLYTGSLWYTPIRREWYYEVIIVRVEINGQDLKMDCKEYNYDKSIVDSGTTNLRLPKKVFEAAVKSIKAASSTEKFPDGFWLGEQLVCWQAGTTPWNIFPVISLYLMGEVTNQSFRITILPQQYLRPVEDVATSQDDCYKFAISQSSTGTVMGAVIMEGFYVVFDRARKRIGFAVSACHVHDEFRTAAVEGPFVTLDMEDCGYNIPQTDESTLMTIAYVMAAICALFMLPLCLMVCQWRCLRCLRQQHDDFADDISLLK
# notes: It was transiently transfected into SHSY5Y-APPswe cells; also called BACE/Asp2
# B2: NogoB (ASY) (other)
# chain: MEDLDQSPLVSSSDSPPRPQPAFKYQFVREPEDEEEEEEEEEEDEDEDLEELEVLERKPAAGLSAAPVPTAPAAGAPLMDFGNDFVPPAPRGPLPAAPPVAPERQPCWDPSPVSSTVPAPSPLSAAAVSPSKLPQDDEPPARPPPPPPASVSPQAEPVWTPPAPAPAAPPSTPAAPKRRGSSGSVVVDLLYWRDIKKTGVVFGASLFLLLSLTVFSIVSVTAYIALALLSVTISFRIYKGVIQAIQKSDEGHPFRAYLESEVAISEELVQKYSNSALGHVNCTIKELRRLFLVDDLVDSLKFAVLMWVFTYVGALFNGLTLLILALISLFSVPVIYERHQAQIDHYLGLANKNVKDAMAKIQAKIPGLKRKAE
# What was measured:
# Nogo-A = target: T1, Nogo-A; test: co-localisation by immunofluorescence in double-transfected SHSY5Y-APPswe cells
# Excerpt: (§1) cDNAs encoding Nogo isoforms were transfected into cultured SHSY5Y-APPswe cells and expressed proteins detected in fixed cells with immunohistochemistry. Asp2 was detected using a c-terminal myc epitope (FIG. 3A left panel) while the Nogo-A (FIG. 3A right panel) and B isoforms were detected using isoform specific rabbit polyclonal antibodies (designated 67 and 66 respectively or monoclonal Anti-Nogo-A 6D5 as indicated in the figure legends). These experiments confirm that it is possible to overexpress these proteins in this cellular background and can be used as the basis of an assay for modulators of Nogo influenced APP processing.
# Asp2/BACE-myc = target: B1; test: as above
# Excerpt: as §1
binding result (Nogo-A),binding result (Asp2/BACE-myc),Binder
binds,,B1
,binds,B2
